{"source": "patent US11932908B2", "about": "“Compositions and methods for diagnosis and treatment of epilepsy” (THE REGENTS OF THE UNIVERSITY OF CALIFORNIA, priority 2004, dated 2024)", "molecules": {"B1": {"name": "EFHC1: myoclonin 1, a 640 amino acid protein with an EF-hand motif encoded by EFHC1 transcript A (SEQ ID NO: 4) (protein, listed as Homo sapiens)", "chain": "MVSNPVHGLPFLPGTSFKDSTKTAFHRSQTLSYRNGYAIVRRPTVGIGGDRLQFNQLSQAELDELASKAPVLTYGQPKQAPPADFIPAHVAFDKKVLKFDAYFQEDVPMSTEEQYRIRQVNIYYYLEDDSMSVIEPVVENSGILQGKLIKRQRLAKNDRGDHYHWKDLNRGINITIYGKTFRVVDCDQFTQVFLESQGIELNPPEKMALDPYTELRKQPLRKYVTPSDFDQLKQFLTFDKQVLRFYAIWDDTDSMYGECRTYIIHYYLMDDTVEIREVHERNDGRDPFPLLMNRQRVPKVLVENAKNFPQCVLEISDQEVLEWYTAKDFIVGKSLTILGRTFFIYDCDPFTRRYYKEKFGITDLPRIDVSKREPPPVKQELPPYNGFGLVEDSAQNCFTLIPKAPKKDVIKMLVNDNKVLRYLAVLESPIPEDKDRRFVFSYFLATDMISIFEPPVRNSGIIGGKYLGRTKVVKPYSTVDNPVYYGPSDFFIGAVIEVFGHRFIILDTDEYVLKYMESNAAQYSPEALASIQNHVRKREAPAPEAESKQTEKDPGVQELEALIDTIQKQLKDHSCKDNIREAFQIYDKEASGYVDRDMFFKICESLNVPVDDSLVKELIRMCSHGEGKINYYNFVRAFSN"}}, "key": {"[1]": {"molecular_target": "T1, R-type VDCC (Cav2.3) (Oryctolagus cuniculus, UniProt Q02343)", "T1 construct": "expressed in transfected cells; host or cells: BHK (BII-104-2) cells", "T1 sequence (Q02343 whole entry)": "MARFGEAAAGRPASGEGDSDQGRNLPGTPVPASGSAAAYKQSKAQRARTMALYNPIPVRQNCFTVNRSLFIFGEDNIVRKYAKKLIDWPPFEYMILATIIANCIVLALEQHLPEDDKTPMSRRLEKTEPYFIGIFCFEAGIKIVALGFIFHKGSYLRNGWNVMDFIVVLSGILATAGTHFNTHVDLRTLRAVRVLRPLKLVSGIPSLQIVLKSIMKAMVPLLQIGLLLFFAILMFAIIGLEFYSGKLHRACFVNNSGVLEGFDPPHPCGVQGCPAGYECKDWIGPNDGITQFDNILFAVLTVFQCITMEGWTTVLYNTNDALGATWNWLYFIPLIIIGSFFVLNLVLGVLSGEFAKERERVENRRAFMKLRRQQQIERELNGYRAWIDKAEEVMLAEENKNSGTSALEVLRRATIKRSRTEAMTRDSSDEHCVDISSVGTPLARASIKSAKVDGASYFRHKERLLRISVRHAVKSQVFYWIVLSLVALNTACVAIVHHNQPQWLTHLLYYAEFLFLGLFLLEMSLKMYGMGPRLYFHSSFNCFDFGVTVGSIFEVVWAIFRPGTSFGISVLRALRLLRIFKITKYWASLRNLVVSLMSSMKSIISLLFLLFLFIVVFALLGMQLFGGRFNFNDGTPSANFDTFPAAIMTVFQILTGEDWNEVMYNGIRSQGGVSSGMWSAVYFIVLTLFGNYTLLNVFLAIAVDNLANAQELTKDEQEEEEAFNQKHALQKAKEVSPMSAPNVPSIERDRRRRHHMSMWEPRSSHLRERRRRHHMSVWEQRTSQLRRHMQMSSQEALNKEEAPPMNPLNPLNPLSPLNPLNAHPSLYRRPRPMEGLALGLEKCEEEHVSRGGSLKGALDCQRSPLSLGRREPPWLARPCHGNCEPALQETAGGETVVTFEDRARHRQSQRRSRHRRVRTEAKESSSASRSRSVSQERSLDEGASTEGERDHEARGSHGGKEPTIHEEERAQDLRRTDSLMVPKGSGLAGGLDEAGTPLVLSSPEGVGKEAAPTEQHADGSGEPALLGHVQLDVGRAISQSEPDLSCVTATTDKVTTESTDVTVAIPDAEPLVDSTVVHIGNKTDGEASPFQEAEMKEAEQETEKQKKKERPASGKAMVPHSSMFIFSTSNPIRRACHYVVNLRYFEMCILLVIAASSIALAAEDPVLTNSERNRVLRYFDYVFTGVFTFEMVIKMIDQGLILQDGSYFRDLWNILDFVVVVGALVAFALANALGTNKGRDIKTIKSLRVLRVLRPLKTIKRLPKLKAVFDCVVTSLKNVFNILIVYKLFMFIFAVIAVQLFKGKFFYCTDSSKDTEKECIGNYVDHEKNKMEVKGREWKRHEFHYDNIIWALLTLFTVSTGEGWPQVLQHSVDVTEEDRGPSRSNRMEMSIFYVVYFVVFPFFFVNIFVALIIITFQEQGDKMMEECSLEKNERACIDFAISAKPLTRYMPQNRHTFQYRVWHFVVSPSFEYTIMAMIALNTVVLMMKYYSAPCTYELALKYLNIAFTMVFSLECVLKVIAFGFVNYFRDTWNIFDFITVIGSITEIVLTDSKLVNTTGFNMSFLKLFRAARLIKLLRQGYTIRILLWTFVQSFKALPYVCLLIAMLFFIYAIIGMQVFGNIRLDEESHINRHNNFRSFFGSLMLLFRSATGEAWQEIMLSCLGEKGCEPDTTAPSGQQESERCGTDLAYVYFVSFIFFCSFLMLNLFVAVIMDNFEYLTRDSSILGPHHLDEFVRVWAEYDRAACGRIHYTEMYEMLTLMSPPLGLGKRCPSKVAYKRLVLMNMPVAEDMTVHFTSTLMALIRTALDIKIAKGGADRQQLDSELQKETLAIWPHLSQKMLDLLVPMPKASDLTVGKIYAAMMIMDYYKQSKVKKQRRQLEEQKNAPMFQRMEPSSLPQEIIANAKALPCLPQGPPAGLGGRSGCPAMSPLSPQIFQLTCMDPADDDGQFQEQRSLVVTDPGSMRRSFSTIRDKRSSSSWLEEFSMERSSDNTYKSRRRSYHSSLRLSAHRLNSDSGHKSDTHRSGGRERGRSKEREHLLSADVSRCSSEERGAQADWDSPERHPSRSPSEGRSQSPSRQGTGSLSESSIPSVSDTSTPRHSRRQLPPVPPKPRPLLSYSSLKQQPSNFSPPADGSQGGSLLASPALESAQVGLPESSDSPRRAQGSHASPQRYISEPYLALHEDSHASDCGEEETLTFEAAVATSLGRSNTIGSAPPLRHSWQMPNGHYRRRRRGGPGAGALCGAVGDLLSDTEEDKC", "T1 sequence (P13806 27-1106 partner)": "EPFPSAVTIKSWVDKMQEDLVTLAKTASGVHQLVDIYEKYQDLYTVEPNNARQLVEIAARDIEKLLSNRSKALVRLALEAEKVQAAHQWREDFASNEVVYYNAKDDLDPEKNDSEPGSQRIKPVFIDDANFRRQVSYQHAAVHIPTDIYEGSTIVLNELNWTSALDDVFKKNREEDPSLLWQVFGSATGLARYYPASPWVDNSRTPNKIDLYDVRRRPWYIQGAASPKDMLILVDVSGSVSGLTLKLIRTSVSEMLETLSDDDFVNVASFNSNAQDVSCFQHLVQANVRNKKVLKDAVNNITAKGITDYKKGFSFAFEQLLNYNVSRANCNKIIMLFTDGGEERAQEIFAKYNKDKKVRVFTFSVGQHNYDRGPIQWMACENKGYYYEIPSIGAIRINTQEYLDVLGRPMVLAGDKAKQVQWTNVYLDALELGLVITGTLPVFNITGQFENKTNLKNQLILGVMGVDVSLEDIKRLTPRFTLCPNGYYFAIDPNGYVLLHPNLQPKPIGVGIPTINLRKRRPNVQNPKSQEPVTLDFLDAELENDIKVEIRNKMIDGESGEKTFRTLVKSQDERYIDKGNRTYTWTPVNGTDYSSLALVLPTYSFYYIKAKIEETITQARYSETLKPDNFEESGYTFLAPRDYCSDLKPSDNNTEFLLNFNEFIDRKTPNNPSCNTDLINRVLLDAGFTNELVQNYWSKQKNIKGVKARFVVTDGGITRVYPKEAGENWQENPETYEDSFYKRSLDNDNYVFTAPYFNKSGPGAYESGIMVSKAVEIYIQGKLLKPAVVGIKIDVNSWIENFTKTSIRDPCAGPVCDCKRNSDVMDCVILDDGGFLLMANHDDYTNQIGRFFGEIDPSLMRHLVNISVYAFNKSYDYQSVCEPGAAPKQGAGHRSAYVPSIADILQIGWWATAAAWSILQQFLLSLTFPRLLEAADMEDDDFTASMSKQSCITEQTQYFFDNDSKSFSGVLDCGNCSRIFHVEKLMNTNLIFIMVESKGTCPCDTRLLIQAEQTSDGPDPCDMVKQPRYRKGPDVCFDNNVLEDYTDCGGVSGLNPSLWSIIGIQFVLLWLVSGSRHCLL", "T1 sequence (P19517 whole entry partner)": "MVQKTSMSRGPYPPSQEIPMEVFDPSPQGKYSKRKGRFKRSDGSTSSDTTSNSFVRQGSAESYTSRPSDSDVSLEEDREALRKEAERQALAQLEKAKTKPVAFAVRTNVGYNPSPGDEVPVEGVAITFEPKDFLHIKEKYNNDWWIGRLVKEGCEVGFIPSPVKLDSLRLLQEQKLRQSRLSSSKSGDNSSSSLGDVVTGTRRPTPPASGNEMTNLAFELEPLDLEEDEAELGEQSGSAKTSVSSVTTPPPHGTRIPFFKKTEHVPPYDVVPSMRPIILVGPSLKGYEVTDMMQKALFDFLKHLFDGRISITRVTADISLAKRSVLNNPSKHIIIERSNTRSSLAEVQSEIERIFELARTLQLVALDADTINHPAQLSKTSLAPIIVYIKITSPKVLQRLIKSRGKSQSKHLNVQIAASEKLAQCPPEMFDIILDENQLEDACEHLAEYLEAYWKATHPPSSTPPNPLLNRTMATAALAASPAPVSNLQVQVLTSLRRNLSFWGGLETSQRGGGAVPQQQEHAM", "test": "Patch-clamp analyses of BHK cells stably expressing Cav2.3 transfected with EFHC1 constructs", "format": "cell-based", "conditions": "whole cell patch-clamp, 24-48 hr after transfection", "experimental": "Electrophysiological analysis. A baby hamster kidney (BHK) cell line BHK (BII-104-2) stably transfected with the ociE (BII), α2/δ and β1a subunits, were cultured in DMEM medium containing 10% fetal bovine serum (FBS), 30 U/mL penicillin and 30 μg/mL streptomycin. To transiently express wild type or mutant EFHC1, BHK (BII-104-2) cells were transfected with the pEGFP-C2 plasmids (Clonetech) containing EGFP fused with cDNA for EFHC1 or its mutants using SuperFect Transfection Reagent (QIAGEN). For control experiments, EGFP was transiently expressed by transfecting BHK (BII-104-2) with the same amount of pEGFP without the EFHC1 inserts. Cells were trypsinized, diluted with the DMEM medium, and plated onto glass coverslips 18 hrs after transfection. Ca^2+ currents were recorded 24-48 hr after transfection from GFP-positive cells. Currents from BHK (BII-104-2) cells were recorded at room temperature (22-25° C.) using patch-clamp techniques of whole cell mode with an EPC-9 amplifier (HEKA, Germany). Patch pipettes were made from borosilicate glass capillaries (1.5 mm outer diameter and 0.87 mm inner diameter; Hilgenberg) by using a model P-97 Flaming-Brown micropipette puller (Sutter Instrument Co., CA). Pipette resistance ranged from 2 to 3 MΩ when filled with the pipette solutions described below. The series resistance was electronically compensated to >70% and both the leakage and the remaining capacitance were subtracted by −P/6 method. Currents were sampled at 100 kHz in activation kinetics, otherwise sampled at 50 kHz and filtered at 10 kHz. Calcium currents were recorded in an external solution that contained (in mM): 3 CaCl2, 148 tetraethylammonium chloride (TEA-C1), 10 glucose, and 10 HEPES, pH adjusted to 7.4 with Tris-OH. The pipette solution contained (in mM): 85 Cs-aspartate, 40 CsCl, 4 MgCl2, 5 EGTA, 2 ATP2Na, 5 HEPES, and 8 creatine-phosphate, pH adjusted to 7.4 with CsOH. To determine voltage-dependence of activation, amplitude of tail currents at −50 mV after 5 ms test pulse (−40 to 90 mV) was normalized to the maximal tail current amplitude. […]"}, "[2]": {"molecular_target": "T2, PQ type VDCC (Cav2.1) (Oryctolagus cuniculus, UniProt P27884)", "T2 construct": "expressed in transfected cells; host or cells: HEK cell line", "test": "Patch-clamp analyses of HEK cell line with P/Q type VDCCs and wild type EFHC1 or mutant constructs", "format": "cell-based"}, "[3]": {"test_system": "C-terminus of Cav2.3", "test": "Co-immunoprecipitation assay in HEK cells, Cav2.3 C-terminus", "format": "binding", "conditions": "tagged proteins co-expressed in HEK cells; listed as WT", "experimental": "(§1) Immunoprecipitation. HEK cells co-transfected with expression constructs were collected 20 hrs post transfection. The cells were washed in PBS, scraped and homogenized in the lysis buffer (10 mM Tris pH 8.0, 150 mM NaCl, 5 mM EDTA) supplemented with protease inhibitors (Complete; Roche). Cellular debris was removed by centrifugation at 12,000×g for 10 min at 4° C. The supernatants were precleared with protein G-Sepharose (Amersham Pharmacia Biotech) for 2 h at 4° C. and then incubated with monoclonal anti-Flag M2-Agarose beads (Sigma) or anti-Myc antibody (Santa Cruz) for 12 hrs at 4° C. Protein G-Sepharose was used for precipitation with anti-Myc antibody. The beads were washed with lysis buffer five times and then eluted either with Flag peptide or SDS sample buffer for immunoblot analyses.\n(§2) Western blot analysis. Confluent HEK cells transiently transfected with expression constructs were placed on ice and washed twice with ice-cold PBS. Cells were scraped from the dishes and homogenized in a hypotonic buffer (0.25M sucrose, 10 mM Tris-HCl, 10 mM NaCl, 1 mM EDTA, pH7.5) supplemented with mixture of protease inhibitors (Complete; Roche). The lysate was centrifuged at 3,300 g for 5 min. to remove nuclei and the supernatant was used as total cytosolic protein. […]"}, "[4]": {"test_system": "C-terminus of Cav2.1", "test": "Co-immunoprecipitation assay in HEK cells, Cav2.1 C-terminus", "format": "binding", "conditions": "tagged proteins co-expressed in HEK cells", "experimental": "as §1, §2"}, "[5]": {"test_system": "C-terminus of Cav2.2", "test": "Co-immunoprecipitation assay in HEK cells, Cav2.2 C-terminus", "format": "binding", "conditions": "tagged proteins co-expressed in HEK cells", "experimental": "as §1, §2"}, "[6]": {"test_system": "Bid", "test": "Co-expression with DsRed-Bid vector (marker for caspase activation)", "format": "cell-based", "conditions": "fetal mouse primary hippocampal neuron", "excerpt": "Clarifying the exact stage or stages of apoptosis thru which myoclonin/EFHC1 acts and by what stage JME mutations reverse apoptosis is important for development of a curative treatment. Typically, apoptotic stimuli, through a Bcl-2 family mediated checkpoint, cause redistribution of cytochrome-c from mitochondria to cytosol. Cytosolic cytochrome-c binds to APAF-1 in the presence of dATP or ATP, result in recruitment and activation of caspase 9 and subsequent cleavage of caspase 3. Caspase 3 ultimately produces extensive DNA fragmentation. […] After establishing Bid activation, the next step is to establish that myoclonin acting through Bid, cause mitochondrial cytochrome C release and then caspase 3 activation. After establishing this step, studies will ask whether myoclonin also acts thru the AIF and a caspase 3 independent cell death mechanisms."}, "[7]": {"test_system": "mouse hippocampal primary culture neurons", "procedure": "Mouse hippocampal neurons primary culture. Hippocampal neurons were isolated from embryonic day 16 mice and plated at 1-2×10^5 cells per well in 24 well plate containing glass coverslips coated with poly-1-lysine and grown in serum-free NEUROBASAL™ media supplemented with B27, 0.5 mM L-glutamine (Invitrogen).\nTransfection and immunostaining of mouse hippocampal neurons. […] Cultures were fixed with 4% paraformaldehyde in PBS 16 and 48 hours after transfection, permeabilized with 0.3% Triton X-100, blocked in 3% normal goat serum in PBS, and treated with mouse monoclonal anti-MAP-2 antibody (1:500; Sigma) and Alexa fluor 594 goat anti-mouse IgG antibody (1:1000; Molecular Probes).\nTUNEL assay. […] Forty-eight hours after transfection, neuronal apoptosis was detected using DeadEndTM Fluorometric TUNEL System (Promega). Nuclei were visualized with Hoescht 33342 (Molecular Probes). These cells were also stained with anti-Myc antibody (1:200; Cell Signaling) and Alexa fluor 594 goat anti-rabbit IgG antibody (1:1000). All experiments were carried out in duplicate wells and at least repeated three times. Neuron cells were observed on a confocal microscope (OLYMPUS FLUOVIEW) following 48 hours post transfection.\nCell death analyses with EFHC1 mutants. […] Surviving cell numbers were scored by counting GFP fluorescent-positive cells that attached to dishes. At each counting, detached cells (dead cells) were carefully removed by changing culture medium. Morphologies of cells (cell shape, length and number of neurites, shrinkage, etc.) were not considered for the counting. Surviving cell numbers were scored at 24, 36, and 48 hours after transfection. Analyses were repeated twice by using two independently prepared expression construct DNAs. In total, neurons in seven wells of 24 well plates were counted for each transfection and time point. Experiments were performed in a blinded fashion."}}, "note": "Entries after “also recorded” stand apart in the source; their conditions may differ. Where two headings read alike, the source gives them in different places."}
{"molecule": "B1", "values": [{"measurement": "R-type Ca2+ current generated by Cav2.3", "setting": "[1]", "value": "specifically increased; also recorded: significantly increased"}, {"measurement": "R-type Ca2+ current generated by Cav2.3", "setting": "[1]; listed as WT EFHC1", "value": "significantly up-regulates"}, {"measurement": "Ca2+ current density of P/Q-type VDCC (Cav2.1)", "setting": "[2]; cells co-transfected with P/Q-type VDCC and EFHC1 constructs", "value": "did not show such increase; also recorded: did not significantly affect"}, {"measurement": "Activation V0.5 (mV)", "setting": "[2]; half-maximal voltage of activation, mean ± SEM", "value": "23.9 ± 1.0", "unit": "mV"}, {"measurement": "Inactivation V0.5 (mV)", "setting": "[2]; half-maximal voltage of inactivation, mean ± SEM", "value": "−8.0 ± 0.8", "unit": "mV"}, {"measurement": "inactivation speed of P/Q type VDCC (decelerating effect on calcium inactivation)", "setting": "[2]; patch-clamp", "value": "significantly decelerated"}, {"measurement": "voltage dependence of activation", "setting": "[2]; patch-clamp", "value": "did not significantly affect"}, {"measurement": "voltage dependence of inactivation", "setting": "[2]; patch-clamp", "value": "toward positive potentials"}, {"measurement": "Activation k (mV)", "setting": "[2]; slope factor, mean ± SEM", "value": "8.63 ± 0.35", "unit": "mV"}, {"measurement": "Inactivation K (mV)", "setting": "[2]; slope factor, mean ± SEM", "value": "6.73 ± 0.15", "unit": "mV"}, {"measurement": "co-immunoprecipitation with Cav2.3 C-terminus", "setting": "[3]", "value": "co-immunoprecipitated"}, {"measurement": "co-immunoprecipitation with Cav2.1 C-terminus", "setting": "[4]", "value": "did not"}, {"measurement": "co-immunoprecipitation with Cav2.2 C-terminus", "setting": "[5]", "value": "did not"}, {"measurement": "Bid activation", "setting": "[6]", "value": "activated Bid in a number of EFHC1-expressing neurons"}, {"measurement": "neuronal morphology", "setting": "[7]; 16 hours post-transfection", "value": "shorter neurites and lesser branches; also recorded: shorter neurites and fewer branches"}, {"measurement": "neuronal morphology", "setting": "[7]; 16 hours post-transfection, listed as GFP-EFHC1", "value": "shorter neurites and less branches"}, {"measurement": "apoptosis (TUNEL) on EFHC1 overexpression", "setting": "[7]; 48 hours after transfection", "value": "induced apoptosis; also recorded: overlap with TUNEL positive cells"}, {"measurement": "neuronal morphology", "setting": "[7]; 48 hours post-transfection", "value": "signs of neurodegeneration and cell death; also recorded: neurodegeneratve morphologies"}, {"measurement": "neuronal morphology", "setting": "[7]; 48 hours post-transfection, listed as GFP-EFHC1", "value": "signs of neurodegeneration and cell death"}]}
